Source: patent US20240209113A1 (BEIGENE SWITZERLAND, published 2024)

Experiments:
[1] = target: T1, human CD137 ECD-mIgG2a (human); experiment: competition ELISA on coated human CD137 ECD-mIgG2a: BGA-5623 (IgG4 Fc) detected with anti-human IgG-HRP in the presence of serially diluted human CD137 ligand ECD-mIgG2a
T1 construct: Human CD137 AA 24-183 fused to mouse IgG2a Fc; also called huCD137

[2] = target: T2, TNFRSF1B(CD120b) (UniProt P20333 23-257); experiment: ELISA, antigens coated at 10 ug/ml; antibody concentration not given
T2 construct: Bought protein
T2 sequence (looked up): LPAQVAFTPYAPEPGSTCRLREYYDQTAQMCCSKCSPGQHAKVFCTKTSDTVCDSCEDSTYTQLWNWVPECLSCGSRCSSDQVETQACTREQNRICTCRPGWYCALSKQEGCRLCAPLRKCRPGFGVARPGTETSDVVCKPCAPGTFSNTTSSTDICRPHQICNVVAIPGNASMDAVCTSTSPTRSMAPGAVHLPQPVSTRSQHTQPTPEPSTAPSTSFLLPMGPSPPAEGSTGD

[3] = target: T3, human CD40 ECD-mIgG2a (human); experiment: as above
T3 construct: also called huCD40; TNFRSF5(CD40)

[4] = target: T4, TNFRSF1A(CD120a) (UniProt P19438 30-211, limits assumed); experiment: as above
T4 construct: Bought protein
T4 sequence (looked up): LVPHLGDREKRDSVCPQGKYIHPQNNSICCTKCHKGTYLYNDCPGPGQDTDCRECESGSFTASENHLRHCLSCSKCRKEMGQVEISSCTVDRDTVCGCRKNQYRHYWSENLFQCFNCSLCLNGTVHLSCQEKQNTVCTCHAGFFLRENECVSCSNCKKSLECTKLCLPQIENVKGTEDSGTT

[5] = target: T5, human OX40 ECD-His (human, UniProt P43489 29-216); experiment: as above
T5 construct: also called human OX40-his; huOX40
T5 sequence: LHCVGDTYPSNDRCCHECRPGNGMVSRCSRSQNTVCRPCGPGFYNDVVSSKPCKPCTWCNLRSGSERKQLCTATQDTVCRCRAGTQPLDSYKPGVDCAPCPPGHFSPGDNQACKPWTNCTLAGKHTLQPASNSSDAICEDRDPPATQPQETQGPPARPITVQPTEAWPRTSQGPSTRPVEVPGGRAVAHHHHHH

[6] = target: T6, Human CD137 ectodomain containing four CRDs (crystallization construct) (human, UniProt Q07011 24-162); experiment: complex purified by gel filtration and crystallized
T6 construct: Expressed with a C-terminal TEV site and Fc tag; the Fc tag was cut off
T6 chain: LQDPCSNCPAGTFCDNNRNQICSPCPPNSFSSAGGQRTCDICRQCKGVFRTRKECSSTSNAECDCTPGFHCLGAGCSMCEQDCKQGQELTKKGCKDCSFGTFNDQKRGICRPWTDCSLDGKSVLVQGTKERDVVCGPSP
Experimental: The complex was then further purified by gel filtration in buffer (20 mM Tris pH 8.0, 100 mM NaCl) using a HiLoad 16/600 Superdex™ 75 pg column (GE Healthcare Life Sciences). […] Crystals cryoprotected with stepwise 5% D-(+)-Sucrose to a final 20% concentration were flash frozen in liquid nitrogen. […] Crystal was cryoprotected with 7% glycerol and flash frozen in liquid nitrogen. The X-ray diffraction data was collected at beamline BL45XU at Spring-8 synchrotron radiation facility (Hyogo, Japan).

T3 sequence (chain, as listed by the source limits assumed): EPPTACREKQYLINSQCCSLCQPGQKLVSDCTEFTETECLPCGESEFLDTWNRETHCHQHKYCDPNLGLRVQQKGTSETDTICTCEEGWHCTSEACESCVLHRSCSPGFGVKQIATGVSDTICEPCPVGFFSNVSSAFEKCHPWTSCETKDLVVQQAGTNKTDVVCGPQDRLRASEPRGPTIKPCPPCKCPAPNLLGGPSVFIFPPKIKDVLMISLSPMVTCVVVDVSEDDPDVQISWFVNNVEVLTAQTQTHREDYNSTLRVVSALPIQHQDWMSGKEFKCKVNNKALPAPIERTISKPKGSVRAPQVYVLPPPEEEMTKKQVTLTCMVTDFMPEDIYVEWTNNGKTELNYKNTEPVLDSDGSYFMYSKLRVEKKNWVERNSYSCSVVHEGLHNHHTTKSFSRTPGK

B1: human CD137 ligand-mIgG2a (Fc fusion)
chain: EPRGPTIKPCPPCKCPAPNLLGGPSVFIFPPKIKDVLMISLSPIVTCVVVDVSEDDPDVQISWFVNNVEVHTAQTQTHREDYNSTLRVVSALPIQHQDWMSGKEFKCKVNNKDLPAPIERTISKPKGSVRAPQVYVLPPPEEEMTKKQVTLTCMVTDFMPEDIYVEWTNNGKTELNYKNTEPVLDSDGSYFMYSKLRVEKKNWVERNSYSCSVVHEGLHNHHTTKSFSRTPGKGGGGSREGPELSPDDPAGLLDLRQGMFAQLVAQNVLLIDGPLSWYSDPGLAGVSLTGGLSYKEDTKELVVAKAGVYYVFFQLELRRVVAGEGSGSVSLALHLQPLRSAAGAAALALTVDLPPASSEARNSAFGFQGRLLHLSAGQRLGVHLHTEARARHAWQLTQGATVLGLFRVTPEIPAGLPSPRSE
notes: also called human CD137 ligand ECD-mIgG2a; huCD137 ligand
- IC50 (read off the curve) [1]: ~2 µg/mL

B2: Urelumab analog (antibody, human IgG4 S228P, kappa, V domains shown)
VH: QVQLQQWGAGLLKPSETLSLTCAVYGGSFSGYYWSWIRQSPEKGLEWIGEINHGGYVTYNPSLESRVTISVDTSKNQFSLKLSSVTAADTAVYYCARDYGPGNYDWYFDLWGRGTLVTVSS
VL: EIVLTQSPATLSLSPGERATLSCRASQSVSSYLAWYQQKPGQAPRLLIYDASNRATGIPARFSGSGSGTDFTLTISSLEPEDFAVYYCQQRSNWPPALTFGGGTKVEIKR
notes: also called Urelumab analog antibody
- binding result [2]: no binding
- binding result [3]: no binding
- binding result [4]: no binding
- binding result [5]: no binding

B3: VH (BGA-5623) (VHH)
VHH: EVQLLESGGGLVQPGGSLRLSCAASGFTVSAEDVGWVRQAPGKGLEWVSAILDKGGSTYYAESVKGRFTISRDNAKNTLYLQMSSLRAEDTAVYYCARIVYHAGGGVTFDTRGQGTQVTVSS
notes: Human VH single domain made in E. coli with an N-terminal HIS-MBP tag removed by TEV protease
- binding result [6]: binds
